Measurements published in article PMC4569318 (Molecular Biology of the Cell, 2015).

T1: Sro7 (wild type, full length) (S. cerevisiae, UniProt Q12038 1-1033)
T1 sequence: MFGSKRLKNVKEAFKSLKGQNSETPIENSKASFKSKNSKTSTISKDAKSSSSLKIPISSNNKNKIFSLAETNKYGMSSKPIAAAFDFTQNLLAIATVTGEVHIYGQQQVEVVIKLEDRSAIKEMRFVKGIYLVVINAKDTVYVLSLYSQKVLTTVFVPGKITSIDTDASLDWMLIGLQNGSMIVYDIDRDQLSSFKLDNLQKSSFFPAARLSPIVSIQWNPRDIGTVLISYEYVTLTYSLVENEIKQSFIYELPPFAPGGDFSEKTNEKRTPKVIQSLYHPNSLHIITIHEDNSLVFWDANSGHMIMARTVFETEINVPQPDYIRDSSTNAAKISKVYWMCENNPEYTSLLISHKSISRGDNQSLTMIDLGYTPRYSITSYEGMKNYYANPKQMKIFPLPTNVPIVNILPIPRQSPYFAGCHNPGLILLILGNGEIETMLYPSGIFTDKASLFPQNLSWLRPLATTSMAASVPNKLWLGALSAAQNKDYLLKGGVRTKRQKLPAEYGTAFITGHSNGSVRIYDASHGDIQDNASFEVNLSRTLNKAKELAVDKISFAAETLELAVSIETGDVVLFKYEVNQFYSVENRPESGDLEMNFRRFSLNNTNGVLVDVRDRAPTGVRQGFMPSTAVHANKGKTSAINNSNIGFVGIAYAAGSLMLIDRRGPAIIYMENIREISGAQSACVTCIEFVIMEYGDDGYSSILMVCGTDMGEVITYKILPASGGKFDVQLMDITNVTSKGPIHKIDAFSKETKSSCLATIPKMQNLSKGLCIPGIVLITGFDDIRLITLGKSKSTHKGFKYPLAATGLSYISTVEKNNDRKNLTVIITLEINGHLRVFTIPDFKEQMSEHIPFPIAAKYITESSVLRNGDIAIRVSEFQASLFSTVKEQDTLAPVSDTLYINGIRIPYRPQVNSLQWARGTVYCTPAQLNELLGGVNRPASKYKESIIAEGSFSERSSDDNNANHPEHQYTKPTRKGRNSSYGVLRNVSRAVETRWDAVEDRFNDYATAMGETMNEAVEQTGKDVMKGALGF

T2: Sro7-D361K (S. cerevisiae, UniProt Q12038 1-1033, D361K)
T2 sequence: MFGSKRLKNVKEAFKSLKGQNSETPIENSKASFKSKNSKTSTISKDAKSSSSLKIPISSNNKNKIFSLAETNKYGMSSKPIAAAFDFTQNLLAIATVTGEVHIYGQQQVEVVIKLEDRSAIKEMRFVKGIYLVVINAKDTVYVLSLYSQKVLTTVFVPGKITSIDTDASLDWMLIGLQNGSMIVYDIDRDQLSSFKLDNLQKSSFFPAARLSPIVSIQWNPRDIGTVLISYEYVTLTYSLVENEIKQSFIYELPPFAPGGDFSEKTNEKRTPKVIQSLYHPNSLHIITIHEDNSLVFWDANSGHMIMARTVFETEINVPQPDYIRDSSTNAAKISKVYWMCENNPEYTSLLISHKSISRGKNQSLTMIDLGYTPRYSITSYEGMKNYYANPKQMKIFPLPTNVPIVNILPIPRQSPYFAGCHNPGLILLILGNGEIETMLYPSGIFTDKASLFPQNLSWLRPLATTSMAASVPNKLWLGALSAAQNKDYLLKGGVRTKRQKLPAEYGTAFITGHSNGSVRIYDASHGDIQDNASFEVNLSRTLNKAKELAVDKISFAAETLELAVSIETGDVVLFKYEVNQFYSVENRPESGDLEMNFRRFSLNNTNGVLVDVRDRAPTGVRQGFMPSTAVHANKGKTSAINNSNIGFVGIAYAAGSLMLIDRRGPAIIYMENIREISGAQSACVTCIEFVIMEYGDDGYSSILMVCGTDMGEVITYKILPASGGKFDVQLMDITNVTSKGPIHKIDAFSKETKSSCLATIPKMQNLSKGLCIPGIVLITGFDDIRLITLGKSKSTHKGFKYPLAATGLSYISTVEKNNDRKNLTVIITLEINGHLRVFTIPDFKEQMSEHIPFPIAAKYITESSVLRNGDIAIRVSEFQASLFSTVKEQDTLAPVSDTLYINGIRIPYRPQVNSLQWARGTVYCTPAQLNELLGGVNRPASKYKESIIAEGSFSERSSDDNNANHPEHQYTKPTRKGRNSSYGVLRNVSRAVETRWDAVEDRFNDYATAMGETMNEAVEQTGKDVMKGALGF

B1: GST-Sec4 (wild type) (natural protein)
chain: MSGLRTVSASSGNGKSYDSIMKILLIGDSGVGKSCLLVRFVEDKFNPSFITTIGIDFKIKTVDINGKKVKLQLWDTAGQERFRTITTAYYRGAMGIILVYDVTDERTFTNIKQWFKTVNEHANDEAQLLLVGNKSDMETRVVTADQGEALAKELGIPFIESSAKNDDNVNEIFFTLAKLIQEKIDSNKLVGVGNGKEGNISINSGSGNSSKSNCC
B2: GST-Sec9 (full length) (natural protein)
chain: MGLKKFFKIKPPEEATPEQNKDTLMELGISVKNPSKKRKEKFAAYGKFANDKAEDKVYAPPGYEQYARPQDELEDLNASPLDANANEATAGSNRGSSGTQDLGNGAESNSMQDPYAIENDDYRYDDDPYARFQANKSNGRGSVNAAPYGDYGGGYNGTSLNSYNNDGPYSNQNTSNSWVNANGRNSLNHSNSTLNVGPSRQTRQPPVSTSTNSLSLDQRSPLANPMQEKRNPYADMNSYGGAYDSNTNRSSGTRQGSSKNANPYASMANDSYSNGNLNRSANPYSSRSVRQPQSQQAPMTYTPSFIASDEAARNSEVDLNEEPRTGEFDFEEVYADKSAENRAALDEPDLNAVMTNEDSIDLNASEVDHSSRQQQQQQWFMDEQQQQQQHFNATNNQYGDQRGYKTFEEIQKEEEARQQQEEDEAVDEIKQEIKFTKQSSVASTRNTLKMAQDAERAGMNTLGMLGHQSEQLNNVEGNLDLMKVQNKVADEKVAELKKLNRSILAVHVSNPFNSKRRRREREEQLKNRKIEEKLMREQTSQQLSQSTQRIEGAMNANNNISEVRERYQRKNVLEKAKRYQFENDEEDDEMELEIDRNLDQIQQVSNRLKKMALTTGKELDSQQKRLNNIEESTDDLDINLHMNTNRLAGIR

Columns and labels:
[1] = target: T1, Sro7 (wild type, full length); test: pull-down
Sro7-D361K = target: T2, Sro7-D361K; test: pull-down

Binder	binding result [1]	binding result (Sro7-D361K)
B1	binds	binds
B2	binds	–
